The record followed here is doi:10.1101/2022.11.07.515429 (bioRxiv, 2022).

In this test the target is T1, Strep-PRP5 (human, UniProt Q7L014 1-1031).
T1 sequence: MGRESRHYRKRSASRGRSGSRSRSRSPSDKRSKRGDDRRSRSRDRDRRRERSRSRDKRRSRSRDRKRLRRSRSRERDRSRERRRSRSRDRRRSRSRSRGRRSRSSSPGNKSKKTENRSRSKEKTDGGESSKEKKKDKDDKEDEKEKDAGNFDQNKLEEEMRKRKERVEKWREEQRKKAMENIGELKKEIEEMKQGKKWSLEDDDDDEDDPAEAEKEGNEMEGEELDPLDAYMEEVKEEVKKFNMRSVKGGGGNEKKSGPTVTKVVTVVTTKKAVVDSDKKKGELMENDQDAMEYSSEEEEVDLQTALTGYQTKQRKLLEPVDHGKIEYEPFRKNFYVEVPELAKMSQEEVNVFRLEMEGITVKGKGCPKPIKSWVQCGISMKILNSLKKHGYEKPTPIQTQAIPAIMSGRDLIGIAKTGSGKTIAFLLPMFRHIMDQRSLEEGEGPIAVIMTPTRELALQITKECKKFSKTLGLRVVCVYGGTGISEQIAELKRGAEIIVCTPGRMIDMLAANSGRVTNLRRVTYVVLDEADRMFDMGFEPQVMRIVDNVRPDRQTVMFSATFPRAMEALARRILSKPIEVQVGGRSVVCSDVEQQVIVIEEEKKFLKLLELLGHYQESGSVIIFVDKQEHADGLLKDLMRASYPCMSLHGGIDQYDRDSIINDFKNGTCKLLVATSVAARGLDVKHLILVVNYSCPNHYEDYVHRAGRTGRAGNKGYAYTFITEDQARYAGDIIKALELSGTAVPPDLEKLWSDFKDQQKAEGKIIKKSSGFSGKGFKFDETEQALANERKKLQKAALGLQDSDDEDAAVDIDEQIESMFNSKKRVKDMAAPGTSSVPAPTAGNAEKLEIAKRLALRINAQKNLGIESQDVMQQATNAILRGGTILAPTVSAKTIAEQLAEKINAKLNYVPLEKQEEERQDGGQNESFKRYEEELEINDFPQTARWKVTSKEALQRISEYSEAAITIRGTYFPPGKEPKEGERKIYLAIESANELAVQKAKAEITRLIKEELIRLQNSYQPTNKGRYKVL
Put plainly: pull-down.

B1: Flag-tagged SF3B1 K700E (natural protein, human, UniProt O75533 1-1304, looked up)
chain: MAKIAKTHEDIEAQIREIQGKKAALDEAQGVGLDSTGYYDQEIYGGSDSRFAGYVTSIAATELEDDDDDYSSSTSLLGQKKPGYHAPVALLNDIPQSTEQYDPFAEHRPPKIADREDEYKKHRRTMIISPERLDPFADGGKTPDPKMNARTYMDVMREQHLTKEEREIRQQLAEKAKAGELKVVNGAAASQPPSKRKRRWDQTADQTPGATPKKLSSWDQAETPGHTPSLRWDETPGRAKGSETPGATPGSKIWDPTPSHTPAGAATPGRGDTPGHATPGHGGATSSARKNRWDETPKTERDTPGHGSGWAETPRTDRGGDSIGETPTPGASKRKSRWDETPASQMGGSTPVLTPGKTPIGTPAMNMATPTPGHIMSMTPEQLQAWRWEREIDERNRPLSDEELDAMFPEGYKVLPPPAGYVPIRTPARKLTATPTPLGGMTGFHMQTEDRTMKSVNDQPSGNLPFLKPDDIQYFDKLLVDVDESTLSPEEQKERKIMKLLLKIKNGTPPMRKAALRQITDKAREFGAGPLFNQILPLLMSPTLEDQERHLLVKVIDRILYKLDDLVRPYVHKILVVIEPLLIDEDYYARVEGREIISNLAKAAGLATMISTMRPDIDNMDEYVRNTTARAFAVVASALGIPSLLPFLKAVCKSKKSWQARHTGIKIVQQIAILMGCAILPHLRSLVEIIEHGLVDEQQEVRTISALAIAALAEAATPYGIESFDSVLKPLWKGIRQHRGKGLAAFLKAIGYLIPLMDAEYANYYTREVMLILIREFQSPDEEMKKIVLKVVKQCCGTDGVEANYIKTEILPPFFKHFWQHRMALDRRNYRQLVDTTVELANKVGAAEIISRIVDDLKDEAEQYRKMVMETIEKIMGNLGAADIDHKLEEQLIDGILYAFQEQTTEDSVMLNGFGTVVNALGKRVKPYLPQICGTVLWRLNNKSAKVRQQAADLISRTAVVMKTCQEEKLMGHLGVVLYEYLGEEYPEVLGSILGALKAIVNVIGMHKMTPPIKDLLPRLTPILKNRHEKVQENCIDLVGRIADRGAEYVSAREWMRICFELLELLKAHKKAIRRATVNTFGYIAKAIGPHDVLATLLNNLKVQERQNRVCTTVAIAIVAETCSPFTVLPALMNEYRVPELNVQNGVLKSLSFLFEYIGEMGKDYIYAVTPLLEDALMDRDLVHRQTASAVVQHMSLGVYGFGCEDSLNHLLNYVWPNVFETSPHVIQAVMGALEGLRVAIGPCRMLQYCLQGLFHPARKVRDVYWKIYNSIYIGSQDALIAHYPRIYNDDKNTYIRYELDYIL
With B1, the “relative binding ratio (pulldown over input, normalised to WT)” value was found to be 64 percent.
